According to patent US20220064332A1 (INSERM INSTITUT NATIONAL DE LA SANT ET DE LA RECHERCHE M …, published 2022):

Assays:
[1] = target: T1, human 52-kDa pro-cath-D secreted from MDA-MB-231 cells (human, UniProt P07339 21-412); assay: sandwich ELISA: M2E8 capture of pro-cath-D from MDA-MB-231 conditioned medium, serial dilutions of IgG, anti-human Fc-HRP
T1 construct: domain: 52-kDa pro-cath-D; Captured from conditioned medium by the M2E8 antibody in the sandwich ELISA; also called secreted human 52-kDa pro-cath-D
Protocol: Cells were cultured in DMEM with 10% fetal calf serum (FCS, GibcoBRL). To produce conditioned medium, cells were grown to 90% confluence in DMEM medium with 10% FCS, and conditioned medium was centrifuged at 800×g for 10 min. For sandwich ELISA, 96-well plates were coated with M2E8 antibody in PBS (500 ng/well) at 4° C. overnight. After blocking non-specific sites with PBST/1% BSA, conditioned medium was added at 4° C. for 2 h. […] Cath-D was quantified in TNBC cytosols by sandwich ELISA, as described above, after coating with the D7E3 antibody in PBS (200 ng/well) and with the M1G8 antibody conjugated to HRP (1/80), and using recombinant pro-cath-D (1.25-15 ng/ml) for reference (6). TNBC cytosols were previously prepared and frozen (25). GST-cath-D fusion proteins were produced in the E. coli B strain BL21 as described (9).

[2] = target: T2, 4-kDa GST-cath-D pro-fragment (UniProt P07339 21-64, limits assumed); assay: immunoprecipitation of GST-cath-D fusion fragments
T2 construct: domain: 4-kDa pro-fragment; Produced in E. coli BL21
T2 chain (looked up): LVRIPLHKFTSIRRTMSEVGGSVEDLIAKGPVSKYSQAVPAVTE

[3] = target: T3, 14-kDa light chain GSTcath-D (UniProt P07339 65-162, limits assumed); assay: immunoprecipitation of GST-cath-D fusion fragments
T3 construct: domain: 14-kDa light chain; Produced in E. coli BL21
T3 sequence (P07339 65-162 limits assumed): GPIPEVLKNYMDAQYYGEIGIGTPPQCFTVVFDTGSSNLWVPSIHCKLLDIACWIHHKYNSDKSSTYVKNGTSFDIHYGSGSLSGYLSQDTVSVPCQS

EC50 [1]: 1.2 nM | binding result [2]: no binding | binding result [3]: no binding
B1: anti-cath-D antibody E2 (fully human IgG1λ) (antibody, V domains shown)
VH: EVQLVESGGSLVKPGGSLRLSCAASGFTFSNSYMNWVRQAPGKGLEWISYISGSSRYISYADFVKGRFTISRDNATNSLYLQMNSLRAEDTAVYYCVRSSNSYFGGGMDVWGRGTLVTVSS
VL: QSVLTQPASVSGSPGQSITISCAGTSSDVGGSYGVSWYQQHPGKAPKLMIYGDSYRPSGVSNRFSGSKSGNTASLTISGLQAEDEADYYCSSYTNYSTRVFGGGTKLAVL
